# Data published in the RNAGym collection of RNA variant scans (doi:10.7554/elife.90254).
# B1: OR4K15 (parent)
# chain: GUUAACGGUCAUAGGCCAUGGAAACUAGGAGCACCAUUUCGCUGCCAGUGAAGAAAUGAACAAAGAAAAUCUGGGCCAGGCAGGCAUCAAAAGAAAUAGUCUUGCGCUCAACCAGAAAGUCUGUAAUCAUUUUAAGGGUA
# Variants of: B1
# Experiment: self-cleavage, relative activity (ratio to wild type); higher = more cleavage; in vitro, sequencing; the parent is a self-cleaving ribozyme
row,Variant,self-cleavage
1,A62C A91G,1.31
2,A5G G73A,0.21
3,U9G U26C,0.34
4,A51U U102C,1.99
5,A47G A62G,0.63
6,U87C U122C,1.07
7,U26C A67G,1.81
8,U3C A59G,1.17
9,A47G U132C,0.47
10,U87A U133C,1.05
11,A30G A78G,0.11
12,A59U A117G,1.72
13,A92G A125G,0.79
14,U3G G41U,1
15,A22U A126C,1.34
16,A91U U100C,2.82
17,A94G U108G,0.07
18,A92G A129U,1.16
19,A92G A129C,0.59
20,A18U A126G,1.86
21,U19C A67G,1.04

row,Variant,self-cleavage
1,C35U A92U,1.37
2,A54G A90G,0.86
3,U26C G84A,1.84
4,U9C A92C,2.26
5,U49C A86U,1.68
6,U49C A86G,1.03
7,C71U U72A,0.19
8,U87C U120A,0.99
9,A5G A126G,0.69
10,A52G A92U,1.52
11,A52G A92G,1.34
12,U37G,1.62
13,C34U A36U,1.19
14,A36U A86G,1.03
15,A55C,0.94
16,A78G U100C,0.31
17,A13G U102C,1.18
18,U39C C81G,0.16
19,U43C G79U,0.12
20,A126G U131G,1.23
21,A33G G58A,0.55

row,Variant,self-cleavage
1,A30U C113U,0.04
2,A56G A116G,0.66
3,U102C U122C,1.24
4,G83A C109U,0.71
5,U49C A129G,1.82
6,U57A A69G,0.95
7,U12C U87A,0.96
8,A62G A89U,1.85
9,A36U U120A,2.08
10,G7U U108A,0.06
11,A33G A89U,1.27
12,A33G G53C,0.81
13,C16A G80U,0.12
14,A82U U108C,0.01
15,A90G U100C,2.32
16,A69G A118G,0.98
17,A52U U103C,1.36
18,U9A U49A,1
19,A18U A116G,0.63
20,C85U A96G,1.24
21,A5G A116U,0.25

row,Variant,self-cleavage
1,A23U A86G,0.48
2,A22G A129G,0.61
3,A62G A91G,1.12
4,A54G A64U,1.67
5,U38A U102C,1.99
6,A59U A111G,0.02
7,A13G A63U,0.77
8,C25U A54U,1.33
9,U43G A134G,0.89
10,A5G U131C,0.56
11,A18C C113U,0.12
12,G58A A67G,0.36
13,A63G A95G,2.26
14,A33U U124C,1.22
15,A89G U139A,1.67
16,A82C A91U,0.3
17,A22G A59U,1.11
18,C105U U122C,0.11
19,U39C A82G,0.67
20,A110G U124A,0.09
21,A18G U124G,0.94
